Assay results published in doi:10.1101/2021.12.21.473685 (bioRxiv, 2021).

Key:
PARylated PARP2 = PARylated PARP2 (human, UniProt Q9UGN5-2 1-570, poly(ADP-ribose) chains added by in vitro automodification; modified residues not stated); experiment: ITC
ZnF(1-2-3)-BRCT PARP1 = ZnF(1-2-3)-BRCT PARP1 (Homo sapiens, UniProt P09874 1-494); experiment: fluorescence polarization
PARP1 full length = PARP1 full length (Homo sapiens, UniProt P09874 1-1014); experiment: fluorescence polarization
Sequence of PARP1 full length (P09874 whole entry): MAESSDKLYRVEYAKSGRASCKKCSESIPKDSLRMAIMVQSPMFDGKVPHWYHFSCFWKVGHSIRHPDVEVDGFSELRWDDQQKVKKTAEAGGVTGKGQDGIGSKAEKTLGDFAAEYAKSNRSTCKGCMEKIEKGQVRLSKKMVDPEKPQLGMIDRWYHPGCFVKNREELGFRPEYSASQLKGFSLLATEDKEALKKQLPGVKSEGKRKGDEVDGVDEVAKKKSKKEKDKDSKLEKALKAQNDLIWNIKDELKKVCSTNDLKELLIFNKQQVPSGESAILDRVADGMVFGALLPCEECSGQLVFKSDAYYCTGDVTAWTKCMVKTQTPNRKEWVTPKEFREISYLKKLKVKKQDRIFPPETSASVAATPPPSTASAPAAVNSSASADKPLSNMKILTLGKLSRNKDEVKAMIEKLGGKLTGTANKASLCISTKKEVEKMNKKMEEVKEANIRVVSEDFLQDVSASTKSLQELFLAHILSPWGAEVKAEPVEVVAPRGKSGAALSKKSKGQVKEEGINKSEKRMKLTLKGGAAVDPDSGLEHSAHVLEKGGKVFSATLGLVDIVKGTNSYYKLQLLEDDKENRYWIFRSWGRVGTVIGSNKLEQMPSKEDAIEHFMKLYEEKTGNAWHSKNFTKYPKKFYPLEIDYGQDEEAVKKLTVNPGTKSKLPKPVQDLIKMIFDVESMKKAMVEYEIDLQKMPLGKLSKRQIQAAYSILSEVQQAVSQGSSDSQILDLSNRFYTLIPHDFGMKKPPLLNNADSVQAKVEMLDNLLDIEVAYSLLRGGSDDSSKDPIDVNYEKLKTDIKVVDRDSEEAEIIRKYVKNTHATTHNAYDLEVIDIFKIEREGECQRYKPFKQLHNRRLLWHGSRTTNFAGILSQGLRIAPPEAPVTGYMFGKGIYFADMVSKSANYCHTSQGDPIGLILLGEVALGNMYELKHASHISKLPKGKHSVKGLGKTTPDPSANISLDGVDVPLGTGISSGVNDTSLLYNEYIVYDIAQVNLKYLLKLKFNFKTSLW

Sequence of ZnF(1-2-3)-BRCT PARP1 (P09874 1-494): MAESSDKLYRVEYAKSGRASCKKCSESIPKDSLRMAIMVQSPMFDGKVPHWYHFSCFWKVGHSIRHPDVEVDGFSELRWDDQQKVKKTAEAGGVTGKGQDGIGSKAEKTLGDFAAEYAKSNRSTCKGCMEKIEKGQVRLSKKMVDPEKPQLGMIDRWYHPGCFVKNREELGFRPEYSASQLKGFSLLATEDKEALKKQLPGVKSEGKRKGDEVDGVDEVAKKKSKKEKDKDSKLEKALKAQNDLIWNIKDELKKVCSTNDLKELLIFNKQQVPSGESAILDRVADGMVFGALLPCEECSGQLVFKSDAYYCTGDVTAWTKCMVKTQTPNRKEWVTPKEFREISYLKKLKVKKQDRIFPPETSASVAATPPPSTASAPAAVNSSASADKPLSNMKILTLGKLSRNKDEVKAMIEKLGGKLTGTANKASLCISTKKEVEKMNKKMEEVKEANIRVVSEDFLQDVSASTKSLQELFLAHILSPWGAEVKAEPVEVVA

Molecule | Kd (PARylated PARP2) | Kd (ZnF(1-2-3)-BRCT PARP1) | Kd (PARP1 full length)
BRCT domain of PARP1 (from UniProt P09874 385-476) (domain or fragment) | 2000 nM |  | 
ZnF3 domain of PARP1 (domain or fragment) | 2000 nM |  | 
WGR domain of PARP1 (domain or fragment) | 3000 nM |  | 
ZnF3-BRCT-WGR of PARP1 (domain or fragment) VDEVAKKKSKKEKDKDSKLEKALKAQNDLIWNIKDELKKVCSTNDLKELLIFNKQQVPSGESAILDRVADGMVFGALLPCEECSGQLVFKSDAYYCTGDVTAWTKCMVKTQTPNRKEWVTPKEFREISYLKKLKVKKQDRIFPPETSASVAATPPPSTASAPAAVNSSASADKPLSNMKILTLGKLSRNKDEVKAMIEKLGGKLTGTANKASLCISTKKEVEKMNKKMEEVKEANIRVVSEDFLQDVSASTKSLQELFLAHILSPWGAEVKAEPVEVVAPRGKSGAALSKKSKGQVKEEGINKSEKRMKLTLKGGAAVDPDSGLEHSAHVLEKGGKVFSATLGLVDIVKGTNSYYKLQLLEDDKENRYWIFRSWGRVGTVIGSNKLEQMPSKEDAIEHFMKLYEEKTGNAWHSKNFTKYPKKFYPLEIDYGQDEEAVKKLTVNPGT | 40 nM |  | 
DSB DNA (5-FAM labelled) (dsDNA) DNA 1: GCCTACCGGTTCGAATGGCAGC DNA 2: GCTGCCATTCGAACCGGTAGGC |  | ~88 nM | ~15 nM
GCTGGCTTCGTAAGAAGCCAGCTCGCGGTCAGCTTGCTGACCGCG (structured_DNA, 5'-phosphate (printed for unlabelled oligo)) [SSB DNA dumbbell 45-mer (5-FAM labelled)] |  | ~70 nM | ~64 nM
